# Reference: patent US20180155451A1 (published 2018)
# Molecular target: T1, FcγRIa (human, UniProt P12314 16-292)
# T1 construct: extracellular domain; also called FcgRI; CD64
# Test: SPR; vs GpH7-B3/GpL16-k0=100
# T1 sequence (P12314 16-292): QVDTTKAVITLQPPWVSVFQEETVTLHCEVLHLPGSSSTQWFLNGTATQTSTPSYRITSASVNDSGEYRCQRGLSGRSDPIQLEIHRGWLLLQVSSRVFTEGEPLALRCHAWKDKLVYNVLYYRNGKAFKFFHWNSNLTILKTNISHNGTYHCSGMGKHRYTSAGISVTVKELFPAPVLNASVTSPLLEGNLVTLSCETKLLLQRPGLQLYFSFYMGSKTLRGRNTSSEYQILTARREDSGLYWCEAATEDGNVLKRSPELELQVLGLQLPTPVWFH
row,Binder,Ho/Con_1a
1,"GpH7-B3 variant E333_01G/GpL16-k0 (antibody, human IgG1, kappa, homodimerized; also called Ho Ab E333_01G) heavy: not shown light: DIVMTQSPLSLPVTPGEPASISCQASESLVHSNRNTYLHWYLQKPGQSPQLLIYKVSNRFSGVPDRFSGSGSGTDFTLKISRVEAEDVGVYYCSQNTHVPPTFGQGTKVEIERTVAAPSVFIFPPSDEQLKSGTASVVCLLNNFYPREAKVQWKVDNALQSGNSQESVTEQDSKDSTYSLSSTLTLSKADYEKHKVYACEVTHQGLSSPVTKSFNRGEC",100 % of control
2,"GpH7-B3 variant E333_07I/GpL16-k0 (antibody, human IgG1, kappa, homodimerized; also called Ho Ab E333_07I) heavy: not shown light: DIVMTQSPLSLPVTPGEPASISCQASESLVHSNRNTYLHWYLQKPGQSPQLLIYKVSNRFSGVPDRFSGSGSGTDFTLKISRVEAEDVGVYYCSQNTHVPPTFGQGTKVEIERTVAAPSVFIFPPSDEQLKSGTASVVCLLNNFYPREAKVQWKVDNALQSGNSQESVTEQDSKDSTYSLSSTLTLSKADYEKHKVYACEVTHQGLSSPVTKSFNRGEC",99.9 % of control
3,"GpH7-B3 variant E333_08L/GpL16-k0 (antibody, human IgG1, kappa, homodimerized; also called Ho Ab E333_08L) heavy: not shown light: DIVMTQSPLSLPVTPGEPASISCQASESLVHSNRNTYLHWYLQKPGQSPQLLIYKVSNRFSGVPDRFSGSGSGTDFTLKISRVEAEDVGVYYCSQNTHVPPTFGQGTKVEIERTVAAPSVFIFPPSDEQLKSGTASVVCLLNNFYPREAKVQWKVDNALQSGNSQESVTEQDSKDSTYSLSSTLTLSKADYEKHKVYACEVTHQGLSSPVTKSFNRGEC",99 % of control
4,"GpH7-B3 variant H268_07I/GpL16-k0 (antibody, human IgG1, kappa, homodimerized; also called Ho Ab H268_07I) heavy: not shown light: DIVMTQSPLSLPVTPGEPASISCQASESLVHSNRNTYLHWYLQKPGQSPQLLIYKVSNRFSGVPDRFSGSGSGTDFTLKISRVEAEDVGVYYCSQNTHVPPTFGQGTKVEIERTVAAPSVFIFPPSDEQLKSGTASVVCLLNNFYPREAKVQWKVDNALQSGNSQESVTEQDSKDSTYSLSSTLTLSKADYEKHKVYACEVTHQGLSSPVTKSFNRGEC",106 % of control
5,"GpH7-B3 variant G236_02A/GpL16-k0 (antibody, human IgG1, kappa, homodimerized; also called Ho Ab G236_02A) heavy: not shown light: DIVMTQSPLSLPVTPGEPASISCQASESLVHSNRNTYLHWYLQKPGQSPQLLIYKVSNRFSGVPDRFSGSGSGTDFTLKISRVEAEDVGVYYCSQNTHVPPTFGQGTKVEIERTVAAPSVFIFPPSDEQLKSGTASVVCLLNNFYPREAKVQWKVDNALQSGNSQESVTEQDSKDSTYSLSSTLTLSKADYEKHKVYACEVTHQGLSSPVTKSFNRGEC",92.4 % of control
6,"GpH7-B3 variant E333_03V/GpL16-k0 (antibody, human IgG1, kappa, homodimerized; also called Ho Ab E333_03V) heavy: not shown light: DIVMTQSPLSLPVTPGEPASISCQASESLVHSNRNTYLHWYLQKPGQSPQLLIYKVSNRFSGVPDRFSGSGSGTDFTLKISRVEAEDVGVYYCSQNTHVPPTFGQGTKVEIERTVAAPSVFIFPPSDEQLKSGTASVVCLLNNFYPREAKVQWKVDNALQSGNSQESVTEQDSKDSTYSLSSTLTLSKADYEKHKVYACEVTHQGLSSPVTKSFNRGEC",98.4 % of control
7,"GpH7-B3 variant E333_13S/GpL16-k0 (antibody, human IgG1, kappa, homodimerized; also called Ho Ab E333_13S) heavy: not shown light: DIVMTQSPLSLPVTPGEPASISCQASESLVHSNRNTYLHWYLQKPGQSPQLLIYKVSNRFSGVPDRFSGSGSGTDFTLKISRVEAEDVGVYYCSQNTHVPPTFGQGTKVEIERTVAAPSVFIFPPSDEQLKSGTASVVCLLNNFYPREAKVQWKVDNALQSGNSQESVTEQDSKDSTYSLSSTLTLSKADYEKHKVYACEVTHQGLSSPVTKSFNRGEC",101 % of control
8,"GpH7-B3 variant E333_11K/GpL16-k0 (antibody, human IgG1, kappa, homodimerized; also called Ho Ab E333_11K) heavy: not shown light: DIVMTQSPLSLPVTPGEPASISCQASESLVHSNRNTYLHWYLQKPGQSPQLLIYKVSNRFSGVPDRFSGSGSGTDFTLKISRVEAEDVGVYYCSQNTHVPPTFGQGTKVEIERTVAAPSVFIFPPSDEQLKSGTASVVCLLNNFYPREAKVQWKVDNALQSGNSQESVTEQDSKDSTYSLSSTLTLSKADYEKHKVYACEVTHQGLSSPVTKSFNRGEC",95.8 % of control
9,"GpH7-B3 variant H268_02A/GpL16-k0 (antibody, human IgG1, kappa, homodimerized; also called Ho Ab H268_02A) heavy: not shown light: DIVMTQSPLSLPVTPGEPASISCQASESLVHSNRNTYLHWYLQKPGQSPQLLIYKVSNRFSGVPDRFSGSGSGTDFTLKISRVEAEDVGVYYCSQNTHVPPTFGQGTKVEIERTVAAPSVFIFPPSDEQLKSGTASVVCLLNNFYPREAKVQWKVDNALQSGNSQESVTEQDSKDSTYSLSSTLTLSKADYEKHKVYACEVTHQGLSSPVTKSFNRGEC",106 % of control
10,"GpH7-B3 variant H268_12R/GpL16-k0 (antibody, human IgG1, kappa, homodimerized; also called Ho Ab H268_12R) heavy: not shown light: DIVMTQSPLSLPVTPGEPASISCQASESLVHSNRNTYLHWYLQKPGQSPQLLIYKVSNRFSGVPDRFSGSGSGTDFTLKISRVEAEDVGVYYCSQNTHVPPTFGQGTKVEIERTVAAPSVFIFPPSDEQLKSGTASVVCLLNNFYPREAKVQWKVDNALQSGNSQESVTEQDSKDSTYSLSSTLTLSKADYEKHKVYACEVTHQGLSSPVTKSFNRGEC",105 % of control
11,"GpH7-B3 variant E333_12R/GpL16-k0 (antibody, human IgG1, kappa, homodimerized; also called Ho Ab E333_12R) heavy: not shown light: DIVMTQSPLSLPVTPGEPASISCQASESLVHSNRNTYLHWYLQKPGQSPQLLIYKVSNRFSGVPDRFSGSGSGTDFTLKISRVEAEDVGVYYCSQNTHVPPTFGQGTKVEIERTVAAPSVFIFPPSDEQLKSGTASVVCLLNNFYPREAKVQWKVDNALQSGNSQESVTEQDSKDSTYSLSSTLTLSKADYEKHKVYACEVTHQGLSSPVTKSFNRGEC",94.2 % of control
12,"GpH7-B3 variant E333_02A/GpL16-k0 (antibody, human IgG1, kappa, homodimerized; also called Ho Ab E333_02A) heavy: not shown light: DIVMTQSPLSLPVTPGEPASISCQASESLVHSNRNTYLHWYLQKPGQSPQLLIYKVSNRFSGVPDRFSGSGSGTDFTLKISRVEAEDVGVYYCSQNTHVPPTFGQGTKVEIERTVAAPSVFIFPPSDEQLKSGTASVVCLLNNFYPREAKVQWKVDNALQSGNSQESVTEQDSKDSTYSLSSTLTLSKADYEKHKVYACEVTHQGLSSPVTKSFNRGEC",96.2 % of control
13,"GpH7-B3 variant H268_05P/GpL16-k0 (antibody, human IgG1, kappa, homodimerized; also called Ho Ab H268_05P) heavy: not shown light: DIVMTQSPLSLPVTPGEPASISCQASESLVHSNRNTYLHWYLQKPGQSPQLLIYKVSNRFSGVPDRFSGSGSGTDFTLKISRVEAEDVGVYYCSQNTHVPPTFGQGTKVEIERTVAAPSVFIFPPSDEQLKSGTASVVCLLNNFYPREAKVQWKVDNALQSGNSQESVTEQDSKDSTYSLSSTLTLSKADYEKHKVYACEVTHQGLSSPVTKSFNRGEC",108 % of control
14,"GpH7-B3 variant G236_20W/GpL16-k0 (antibody, human IgG1, kappa, homodimerized; also called Ho Ab G236_20W; GpH7-B3-03-20W/GpL16-k0) heavy: not shown light: DIVMTQSPLSLPVTPGEPASISCQASESLVHSNRNTYLHWYLQKPGQSPQLLIYKVSNRFSGVPDRFSGSGSGTDFTLKISRVEAEDVGVYYCSQNTHVPPTFGQGTKVEIERTVAAPSVFIFPPSDEQLKSGTASVVCLLNNFYPREAKVQWKVDNALQSGNSQESVTEQDSKDSTYSLSSTLTLSKADYEKHKVYACEVTHQGLSSPVTKSFNRGEC",104 % of control
15,"GpH7-B3 variant H268_08L/GpL16-k0 (antibody, human IgG1, kappa, homodimerized; also called Ho Ab H268_08L) heavy: not shown light: DIVMTQSPLSLPVTPGEPASISCQASESLVHSNRNTYLHWYLQKPGQSPQLLIYKVSNRFSGVPDRFSGSGSGTDFTLKISRVEAEDVGVYYCSQNTHVPPTFGQGTKVEIERTVAAPSVFIFPPSDEQLKSGTASVVCLLNNFYPREAKVQWKVDNALQSGNSQESVTEQDSKDSTYSLSSTLTLSKADYEKHKVYACEVTHQGLSSPVTKSFNRGEC",105 % of control
16,"GpH7-B3 variant E333_04F/GpL16-k0 (antibody, human IgG1, kappa, homodimerized; also called Ho Ab E333_04F) heavy: not shown light: DIVMTQSPLSLPVTPGEPASISCQASESLVHSNRNTYLHWYLQKPGQSPQLLIYKVSNRFSGVPDRFSGSGSGTDFTLKISRVEAEDVGVYYCSQNTHVPPTFGQGTKVEIERTVAAPSVFIFPPSDEQLKSGTASVVCLLNNFYPREAKVQWKVDNALQSGNSQESVTEQDSKDSTYSLSSTLTLSKADYEKHKVYACEVTHQGLSSPVTKSFNRGEC",98.4 % of control
17,"GpH7-B3 variant E333_05P/GpL16-k0 (antibody, human IgG1, kappa, homodimerized; also called Ho Ab E333_05P) heavy: not shown light: DIVMTQSPLSLPVTPGEPASISCQASESLVHSNRNTYLHWYLQKPGQSPQLLIYKVSNRFSGVPDRFSGSGSGTDFTLKISRVEAEDVGVYYCSQNTHVPPTFGQGTKVEIERTVAAPSVFIFPPSDEQLKSGTASVVCLLNNFYPREAKVQWKVDNALQSGNSQESVTEQDSKDSTYSLSSTLTLSKADYEKHKVYACEVTHQGLSSPVTKSFNRGEC",99.2 % of control
18,"GpH7-B3 variant E333_14T/GpL16-k0 (antibody, human IgG1, kappa, homodimerized; also called Ho Ab E333_14T) heavy: not shown light: DIVMTQSPLSLPVTPGEPASISCQASESLVHSNRNTYLHWYLQKPGQSPQLLIYKVSNRFSGVPDRFSGSGSGTDFTLKISRVEAEDVGVYYCSQNTHVPPTFGQGTKVEIERTVAAPSVFIFPPSDEQLKSGTASVVCLLNNFYPREAKVQWKVDNALQSGNSQESVTEQDSKDSTYSLSSTLTLSKADYEKHKVYACEVTHQGLSSPVTKSFNRGEC",98.7 % of control
19,"GpH7-B3 variant E333_16H/GpL16-k0 (antibody, human IgG1, kappa, homodimerized; also called Ho Ab E333_16H) heavy: not shown light: DIVMTQSPLSLPVTPGEPASISCQASESLVHSNRNTYLHWYLQKPGQSPQLLIYKVSNRFSGVPDRFSGSGSGTDFTLKISRVEAEDVGVYYCSQNTHVPPTFGQGTKVEIERTVAAPSVFIFPPSDEQLKSGTASVVCLLNNFYPREAKVQWKVDNALQSGNSQESVTEQDSKDSTYSLSSTLTLSKADYEKHKVYACEVTHQGLSSPVTKSFNRGEC",99.1 % of control
20,"GpH7-B3 variant E333_15Y/GpL16-k0 (antibody, human IgG1, kappa, homodimerized; also called Ho Ab E333_15Y) heavy: not shown light: DIVMTQSPLSLPVTPGEPASISCQASESLVHSNRNTYLHWYLQKPGQSPQLLIYKVSNRFSGVPDRFSGSGSGTDFTLKISRVEAEDVGVYYCSQNTHVPPTFGQGTKVEIERTVAAPSVFIFPPSDEQLKSGTASVVCLLNNFYPREAKVQWKVDNALQSGNSQESVTEQDSKDSTYSLSSTLTLSKADYEKHKVYACEVTHQGLSSPVTKSFNRGEC",100 % of control
21,"GpH7-B3 variant E333_06M/GpL16-k0 (antibody, human IgG1, kappa, homodimerized; also called Ho Ab E333_06M) heavy: not shown light: DIVMTQSPLSLPVTPGEPASISCQASESLVHSNRNTYLHWYLQKPGQSPQLLIYKVSNRFSGVPDRFSGSGSGTDFTLKISRVEAEDVGVYYCSQNTHVPPTFGQGTKVEIERTVAAPSVFIFPPSDEQLKSGTASVVCLLNNFYPREAKVQWKVDNALQSGNSQESVTEQDSKDSTYSLSSTLTLSKADYEKHKVYACEVTHQGLSSPVTKSFNRGEC",99.5 % of control
22,"GpH7-B3 variant E333_09D/GpL16-k0 (antibody, human IgG1, kappa, homodimerized; also called Ho Ab E333_09D) heavy: not shown light: DIVMTQSPLSLPVTPGEPASISCQASESLVHSNRNTYLHWYLQKPGQSPQLLIYKVSNRFSGVPDRFSGSGSGTDFTLKISRVEAEDVGVYYCSQNTHVPPTFGQGTKVEIERTVAAPSVFIFPPSDEQLKSGTASVVCLLNNFYPREAKVQWKVDNALQSGNSQESVTEQDSKDSTYSLSSTLTLSKADYEKHKVYACEVTHQGLSSPVTKSFNRGEC",103 % of control
